Test results taken from paper PMC12065904, “Mapping the interaction surface between CaVβ and actin and its role in calcium channel clearance” (Nature Communications, 2025).

Target: rabbit skeletal muscle actin, polymerized in vitro (F-actin) (rabbit, UniProt P68135 1-377)
Test: co-sedimentation; F-actin cosedimentation: CaVβ proteins incubated with polymerized actin in polymerization buffer (0.2 mM CaCl2, 50 mM KCl, 2 mM MgCl2, 1 mM ATP, 5 mM HEPES pH 8.0), 25 µM phalloidin; 150,000 × g, 20 min, 4 °C; densitometry of pellet over total; also at 30–150 mM NaCl and after 30 or 90 min of incubation
Settings: both partners purified

- bound fraction: 0.24 ± 0.03 fraction
B1: CaVβ2-core WT (core region of rat CaVβ2, residues 23–422) (domain or fragment)
chain: not shown
notes: rat CaVβ2 (voltage-gated calcium channel β2 subunit), UniProtKB Q8VGC3-2, core region (SH3 and GK domains), residues 23–422; Expressed from pRSETB
